Results taken from patent US6962972B2, “Derivatization of proteins” (Lipoxen Technologies Limited, priority 2000, dated 2005).

B1: native catalase: tetrameric haemprotein enzyme from Sigma, used as model protein, underivatised (protein, UniProt P00432 2-527, looked up)
Catalase: ADNRDPASDQMKHWKEQRAAQKPDVLTTGGGNPVGDKLNSLTVGPRGPLLVQDVVFTDEMAHFDRERIPERVVHAKGAGAFGYFEVTHDITRYSKAKVFEHIGKRTPIAVRFSTVAGESGSADTVRDPRGFAVKFYTEDGNWDLVGNNTPIFFIRDALLFPSFIHSQKRNPQTHLKDPDMVWDFWSLRPESLHQVSFLFSDRGIPDGHRHMNGYGSHTFKLVNANGEAVYCKFHYKTDQGIKNLSVEDAARLAHEDPDYGLRDLFNAIATGNYPSWTLYIQVMTFSEAEIFPFNPFDLTKVWPHGDYPLIPVGKLVLNRNPVNYFAEVEQLAFDPSNMPPGIEPSPDKMLQGRLFAYPDTHRHRLGPNYLQIPVNCPYRARVANYQRDGPMCMMDNQGGAPNYYPNSFSAPEHQPSALEHRTHFSGDVQRFNSANDDNVTQVRTFYLKVLNEEQRKRLCENIAGHLKDAQLFIQKKAVKNFSDVHPEYGSRIQALLDKYNEEKPKNAVHTYVQHGSHLSAREKANL
B2: derivatised catalase: catalase derivatised with activated colominic acid for 48 hours in the presence of SDS at 0.01, 0.02 or 0.029 % by weight (conjugate, UniProt P00432 2-527, looked up)
Catalase: B1 Catalase
modifications: colominic acid conjugate

Key:
[1] = Catalase determination (enzyme activity: time for hydrogen peroxide absorbance to drop from 0.450 to 0.400); type: biochemical; conditions: for Time for Δ Ab: absorbance drop 0.45 to 0.40
Description: (§1) Catalase is a tetrameric haemprotein that catalyses the degradation of hydrogen peroxide to oxygen and water. The reaction can be used to determine enzyme activity. The reaction is a first order reaction, whereby the amount of peroxide substrate decomposed is directly proportional to the concentration of both substrate and enzyme. Provided the concentration of substrate is constant between experiments, any difference in decomposition rate will therefore be a function of enzyme activity present. In the present examples, the drop in absorbance hydrogen peroxide at […] from 0.450 to 0.400, corresponding to the decomposition of 3.45 μ moles of hydrogen peroxide in a cuvette having a reaction volume of 3 ml, is determined.
The derivatised catalase compounds were also tested against native catalase for their enzyme activity. The results for catalase alone in FIG. 3 show the effect of subjecting catalase to the reaction conditions but without the addition of activated colominic acid. […] The […] is greater when the polysialylation takes place in the presence of SDS.
The derivatised catalase products were assessed for their catalase activity using the general test described above. The times taken for the enzymes to reduce the absorbance from 0.45 to 0.40 are shown in table 1 as compared to native catalase.

[2] = Hanes Woolf plot at different concentrations of hydrogen peroxide (Km); type: biochemical; conditions: substrate hydrogen peroxide, read-out: Km (substrate concentration at which the reaction rate is half of its maximal value)
Description: as §1
Native catalase, catalase derivitised using 1×10^−3M SDS, for a reaction period of 48 hours, and catalase derivatised using the same reaction time but in the absence of SDS, were compared at different concentrations of hydrogen peroxide to form Hanes Woolf plot.

Molecule	Time for Δ Ab ([1]; Concentration SDS 0 %) [min]	enzyme activity (FIG. 3) ([1]; after the derivatisation reaction conditions, up to 48 hours at 35 to 40° C.)	Km [2] [mM]	Time for Δ Ab ([1]; SDS 0.01 % in derivatisation, 48 hours) [min]	Time for Δ Ab ([1]; SDS 0.02 % in derivatisation, 48 hours) [min]	Time for Δ Ab ([1]; SDS 0.029 % (1×10^−3M) in derivatisation, 48 hours) [min]
B1	4	catalase activity is lost under those conditions	84			
B2				13	21	44
